The target in assay [1] is T1, 人N端脑钠肽前体 (N-terminal pro-brain natriuretic peptide, NT-proBNP) (human, UniProt P16860 27-102).
T1 construct: domain: N端脑钠肽前体 (NT-proBNP), 76个氨基酸残基; Bought recombinant protein; also called hNT-proBNP; 人N末端B型脑钠肽前体
T1 sequence (looked up): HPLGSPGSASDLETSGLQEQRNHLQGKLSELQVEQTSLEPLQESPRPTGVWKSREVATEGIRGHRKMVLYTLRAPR
Nature of the assay: indirect ELISA, NT-proBNP coated at 400 ng/ml, serially diluted purified ascites antibody. In general terms: In an ELISA, binding on a coated surface is turned into a signal by an enzyme label.

The target in assay [2] is T1, 人N端脑钠肽前体 (N-terminal pro-brain …). Nature of the assay: non-competitive enzyme immunoassay (ELISA), NT-proBNP coated at 400, 100, 25 ng/mL, Ka=(n-1)/2(n[Ab']t-[Ab]t).

A value given as a limit tells only on which side of the number the result lay.

B1: 单克隆抗体Ab3 (抗人N端脑钠肽前体单克隆抗体) (antibody, V domains shown)
VH: QVQLQQPGAELVKPGASVKMSCQASGFTFTNYIIHWVKQTPGQGLEWIGAIYPGNGDTSYNQKFRGKATLTADKSSNTAYMQLSSLTSEDSAVYYCAGEDNYGNSYWYFDVWGAGTTVTVSS
VL: DIVMTQTPLSLPVSLGDQASISCRSSQSIVHSTGNTYLEWYLQKPGQSPKLLIYKVSNRLSGVPDRFSGSGSGTDFTLKISRVEAEDLGVYYCFQGSQVSLTFGAGTKLELKR
Take B1: the “效价 (antibody dilution at OD450 about 1.0)” value in assay [1] was > 1e+06 dilution fold (1:x).

B2: 单克隆抗体Ab1 (抗人N端脑钠肽前体单克隆抗体, 杂交瘤细胞株3A2分泌) (antibody)
chain 1: VKLQESGPELVKPGASQKISCKTSGYTFTVYTLHWVKQSHGKSLEWIGAINPKTGSIRNNQKFRDKAILTIDRSSNTAYMDLRSLTSDDSAVYFCARNGGHDVYFFDYWGQGTTVTVSS
chain 2: DIVLTQSPASLAVSLGQRATISYRASKSVSTSGYSYMHWNQQKPGQPPRLLIYLVSNLESGVPARFSGSGSGTDFTLNIHPVEEEDAATYYCQHIR
Turning to B2, in assay [1], the “效价 (antibody dilution at OD450 about 1.0)” value was > 1e+06 dilution fold (1:x). In addition, the Ka in assay [2] is 1e+10 M⁻¹.

The values above are taken from patent CN106916225A (UNIV JINAN, dated 2017).
